This assay has as its target GST-EPAC1 (purified recombinant).

Take “RanBP2 zinc finger domain (ZFD), 1171-1809 aa (from UniProt P49792 1171-1809) (domain or fragment)”: the shift of the AC50 of cAMP for EPAC1 GEF activity by RanBP2 ZFD (cAMP titration); maximal GEF activity also reduced stood at 10 fold.

The values above are taken from PMC12226364.
